The target in this experiment is myrNAP22 (myristoylated NAP22), rat (rat) (UniProt Q05175). Nature of the experiment: immunoprecipitation with control beads, supernatant on SDS-PAGE, Coomassie staining.
Chain of UniProt Q05175 (Q05175 2-220 limits assumed): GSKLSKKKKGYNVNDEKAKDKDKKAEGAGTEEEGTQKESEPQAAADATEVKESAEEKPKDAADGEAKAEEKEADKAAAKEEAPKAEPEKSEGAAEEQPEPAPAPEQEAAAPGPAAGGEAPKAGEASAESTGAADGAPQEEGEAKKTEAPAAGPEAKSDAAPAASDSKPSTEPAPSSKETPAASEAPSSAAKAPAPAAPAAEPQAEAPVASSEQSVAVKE

Substance “control clone (an antibody clone randomly cloned from the library) (scFv)” came in with a signal intensity of myrNAP22 left in the supernatant (lane 2) relative to input (lane 3) of 90%.

(Values after patent WO2015137441A1.)
